How the values were obtained:
[1] = biological target: T1, recombinant human CD3 epsilon/gamma heterodimer (human, UniProt P07766 23-126; P09693 23-116); assay: Octet BLI, mAb on FAB2G sensor, hCD3 E/G 200-50 nM; R^2 1.00
T1 construct: Recombinant protein in solution (200-50 nM) in the Octet assay; also called hCD3 E/G
Description: (§1) Samples were evaluated by flow cytometry analysis against Jurkat and human Pan-T cells (FIG. 1B) as well as by Octet against recombinant human CD3 proteins to evaluate apparent affinities and binding off-rates (Table 6, infra).

[2] = biological target: T2, recombinant human CD3 epsilon/delta heterodimer (human, UniProt P07766 23-126; P04234 22-105); assay: Octet BLI, mAb on FAB2G sensor, hCD3 E/D 200-50 nM; R^2 1.00
T2 construct: Recombinant protein in solution (200-50 nM) in the Octet assay; also called hCD3 E/D; human CD3E/D

[3] = biological target: T2, recombinant human CD3 epsilon/delta …; assay: Octet BLI, mAb on FAB2G sensor, hCD3 E/D 200-50 nM; R^2 0.99
[4] = biological target: T1, recombinant human CD3 epsilon/gamma …; assay: Octet BLI, mAb on FAB2G sensor, hCD3 E/G 200-50 nM; R^2 0.94
Description: as §1

[5] = biological target: T2, recombinant human CD3 epsilon/delta …; assay: Octet BLI, mAb on FAB2G sensor, hCD3 E/D 200-50 nM; R^2 0.97
Description: as §1

[6] = biological target: T1, recombinant human CD3 epsilon/gamma …; assay: Octet BLI, mAb on FAB2G sensor, hCD3 E/G 200-50 nM; R^2 0.98
Description: as §1

[7] = biological target: T3, CD3 on Jurkat wild-type cells (UniProt P07766 23-207; P04234 22-171; P09693 23-182); assay: flow cytometry on Jurkat WT cells, antibody at 1 ug/ml
T3 construct: whole, on cells; also called Jurkat WT

CD33 on KILR-HL60 cells [8] = biological target: T4, CD33 on KILR-HL60 cells (UniProt P20138 18-364, limits assumed); assay: flow cytometry on KILR-HL60 (CD33 expressing) cells, antibody at 10 ug/ml
T4 construct: whole, on cells; Target of the gemtuzumab arm; also called CD33 expressing cells

[9] = biological target: T3, CD3 on Jurkat wild-type cells; assay: flow cytometry on Jurkat WT cells, antibody at 10 ug/ml
CD33 on KILR-HL60 cells [10] = biological target: T4, CD33 on KILR-HL60 cells; assay: flow cytometry on KILR-HL60 (CD33 expressing) cells, antibody at 1 ug/ml

T3 sequence (P07766 23-207, chain 1 of 3): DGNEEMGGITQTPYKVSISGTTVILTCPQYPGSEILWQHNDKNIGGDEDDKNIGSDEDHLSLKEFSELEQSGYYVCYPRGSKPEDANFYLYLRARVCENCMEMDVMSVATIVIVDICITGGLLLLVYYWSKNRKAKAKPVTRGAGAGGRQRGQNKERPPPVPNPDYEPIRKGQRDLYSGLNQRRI
T3 sequence (P04234 22-171, chain 2 of 3): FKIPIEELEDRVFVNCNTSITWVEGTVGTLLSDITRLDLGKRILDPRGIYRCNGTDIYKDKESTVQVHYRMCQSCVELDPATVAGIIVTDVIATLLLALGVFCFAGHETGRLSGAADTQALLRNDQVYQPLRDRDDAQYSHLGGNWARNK
T3 sequence (P09693 23-182, chain 3 of 3): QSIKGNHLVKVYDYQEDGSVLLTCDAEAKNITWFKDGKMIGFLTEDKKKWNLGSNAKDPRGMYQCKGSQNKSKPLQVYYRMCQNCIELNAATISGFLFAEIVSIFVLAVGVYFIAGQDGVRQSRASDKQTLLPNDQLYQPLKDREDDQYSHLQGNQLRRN
T4 sequence (P20138 18-364 limits assumed): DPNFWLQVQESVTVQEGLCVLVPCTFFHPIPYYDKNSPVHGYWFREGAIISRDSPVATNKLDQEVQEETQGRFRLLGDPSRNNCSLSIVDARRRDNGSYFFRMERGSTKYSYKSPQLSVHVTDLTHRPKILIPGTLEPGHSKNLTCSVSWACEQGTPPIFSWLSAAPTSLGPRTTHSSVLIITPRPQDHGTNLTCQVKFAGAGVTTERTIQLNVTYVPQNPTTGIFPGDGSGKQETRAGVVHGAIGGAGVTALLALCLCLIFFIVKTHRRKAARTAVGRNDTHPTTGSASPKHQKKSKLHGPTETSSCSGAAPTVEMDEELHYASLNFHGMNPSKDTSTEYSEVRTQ
T2 sequence (P07766 23-126, stated change not applied, chain 1 of 2): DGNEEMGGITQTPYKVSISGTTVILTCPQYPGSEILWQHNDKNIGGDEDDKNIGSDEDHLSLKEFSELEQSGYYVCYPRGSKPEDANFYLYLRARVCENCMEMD
T2 sequence (P04234 22-105, stated change not applied, chain 2 of 2): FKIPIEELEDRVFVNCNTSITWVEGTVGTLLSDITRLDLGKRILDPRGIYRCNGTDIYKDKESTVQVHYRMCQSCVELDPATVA
T1 sequence (P07766 23-126, chain 1 of 2): as the sequence (P07766 23-126, stated change not applied, chain 1 of 2) above
T1 sequence (P09693 23-116, chain 2 of 2): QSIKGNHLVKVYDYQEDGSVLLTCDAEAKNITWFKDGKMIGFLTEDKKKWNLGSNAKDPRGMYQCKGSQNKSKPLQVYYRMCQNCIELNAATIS

B1: ABL-CD3-6 (antibody, V domains shown)
VH: EVQLVDSGGGLVKPGGSLRLSCAASGFTFSSYSMNWVRQAPGKGLEWVSSISSRGSYRNYADSVKGRFTISRDNAKNSLYLQMNSLRAEDTAVYYCARDRRELLLDCWGQGTLVTVSS
VL: SYELTQPPSVSVSPGQTARITCSGDALPKKYAYWYQQKSGQAPVLVIYEDSKRPSGIPERFSGSSSGTMATLTISGAQVEDEADYYCYSTDSSGNHSWVFGGGTKLTVL
notes: Chimeric hybridoma mAb: human V, CH1, upper hinge; mouse middle hinge, CH2, CH3
Question: B1 was tested. Which Kd [1] did it give?
Answer: 138 nM

Question: What about the Response [1] of the same binder?
Answer: 0.17

Question: And the koff [1]?
Answer: 0.0779 s⁻¹

Question: And the kon [1]?
Answer: 566000 M⁻¹ s⁻¹

Question: And the Kd [2]?
Answer: 69.7 nM

Question: And the Response [2]?
Answer: 0.3

Question: And the koff [2]?
Answer: 0.0333 s⁻¹

Question: And the kon [2]?
Answer: 477000 M⁻¹ s⁻¹

B2: ABL-CD3-25 (antibody, V domains shown)
VH: EVHLVESGGGLVKPGGSLRLSCAASGFTFSSYSMNWVRQAPGKGLEWVSSISSSSTYIYYADSVKGRFTISRDNAKNSLYLQMNSLRAEDTAVYYCAREPRTLGMDYWGQGILVTVSS
VL: NFMLTQPHSVSESPGKTVTISCTRSSGSIASNYVQWYQQRPGSSPTTVIYEDNHRPSGVPDRFSGSIDSSSNSASLTISGLKTEDEADYFCQSFDSSNRVFGGGTKLTVL
notes: as for B1
Question: Which Kd [1] does the source give for B2 here?
Answer: 11.7 nM

Question: What about the Response [1] of the same binder?
Answer: 1.27

Question: And the koff [1]?
Answer: 0.00113 s⁻¹

Question: And the kon [1]?
Answer: 96600 M⁻¹ s⁻¹

Question: And the Kd [3]?
Answer: 8.56 nM

Question: What about the Response [3] of the same binder?
Answer: 1.32

Question: What about the koff [3] of the same binder?
Answer: 0.000933 s⁻¹

Question: And the kon [3]?
Answer: 109000 M⁻¹ s⁻¹

B3: ABL-CD3-58 (antibody, V domains shown)
VH: EVQLVESGGGLVKPGGSLRLSCVVSGFTFSNYNMNWVRQAPGKGLEWVSSSSRSSYIYYADSVKGRFTISRDNAKNSLYLQMNSLRAEDTAIYYCAREKWELLFFDYWGQGTLVTVSS
VL: NFMLTQPHSVSESPGKTVTISCTRSSGSIASNFVQWYQQRPGSSPTTVIYEDNQRPSGVPDRFSGSIDSSSNSASLTISGLKTEDEADYYCQSFDSSNRVFGGGTKLTVL
notes: as for B1
Question: With B3 as the binder, how does the Kd [2] read?
Answer: 44.1 nM

Question: What about the Response [2] of the same binder?
Answer: 0.57

Question: What about the koff [2] of the same binder?
Answer: 0.00265 s⁻¹

Question: And the kon [2]?
Answer: 60100 M⁻¹ s⁻¹

Question: What about the Kd [4] of the same binder?
Answer: 45.2 nM

Question: And the Response [4]?
Answer: 0.28

Question: What about the koff [4] of the same binder?
Answer: 0.00705 s⁻¹

Question: And the kon [4]?
Answer: 156000 M⁻¹ s⁻¹

B4: ABL-CD3-1 (antibody, V domains shown)
VH: EVQLVESGGGLVKPGGSLRLSCAASGFTLSSYSMNWVRQAPGKGLEWVSSISRSGSYIYYADSVKGRFTISRDNAKNSLYLQMNSLRAEDTAVYYCAREKWELLYFDYWGQGTLVTVSS
VL: NFMLTQPHSVSESPGKTVTISCTRSSGSIASNYVQWYQQRPGSSPTTVIYEDNQRPSGVPDRFSGSIDSSSNSASLTISGLKTEDEADYYCQSYDSSNRVFGGGTKLTVL
notes: as for B1
Question: For B4, which Kd [2] is on record?
Answer: 108 nM

Question: What about the Response [2] of the same binder?
Answer: 0.31

Question: What about the koff [2] of the same binder?
Answer: 0.0157 s⁻¹

Question: And the kon [2]?
Answer: 145000 M⁻¹ s⁻¹

Question: What about the Kd [4] of the same binder?
Answer: 1210 nM

Question: And the Response [4]?
Answer: 0.07

Question: What about the koff [4] of the same binder?
Answer: 0.171 s⁻¹

Question: And the kon [4]?
Answer: 142000 M⁻¹ s⁻¹

B5: ABL-CD3-15 (antibody, V domains shown)
VH: EVQLVESGGGLVKPGGSLRLSCAASGFNCSSYSMNWVRQAPGKGLEWVSSISRSSNYIYYADSVKGRFSISRDDAKNSLYLQMNSLRAEDTAVYYCARERWIQLYSDYWGQGILVTVSS
VL: NFMLTQPHSVSESPGKTVTISCTRSSGSIASNYVQWYQQRPGSSPTTVIYEDNQRPSGVPDRFSGSIDSSSNSASLTISGLKTEDEADYYCQSYDSSNRVFGGGTKLTVL
notes: as for B1
Question: With B5 as the binder, how does the Kd [1] read?
Answer: 6.54 nM

Question: What about the Response [1] of the same binder?
Answer: 0.83

Question: And the koff [1]?
Answer: 0.00113 s⁻¹

Question: What about the kon [1] of the same binder?
Answer: 173000 M⁻¹ s⁻¹

Question: And the Kd [3]?
Answer: 1.62 nM

Question: What about the Response [3] of the same binder?
Answer: 0.93

Question: What about the koff [3] of the same binder?
Answer: 0.000276 s⁻¹

Question: And the kon [3]?
Answer: 171000 M⁻¹ s⁻¹

B6: ABL-CD3-19 (antibody, V domains shown)
VH: EVQLVESGGGLVKPGGSLRLSCAASGFTLSSYSMNWVRQAPGKGLEWVSSISRSSSYIYYADSVKGRFTISRDNAKNSLYLQMNSLRAEDTAVYYCARERWELLYFDYWGQGTLVTVSS
VL: NFMLTQPHSVSESPGKTVTISCTRSSGSIASNYVQWYQQRPGSSPTTVIYEDNQRPSGVPDRFSGSIDSSSNSASLTISGLKTEDEADYYCQSFDNSNRVFGGGTKLTVL
notes: as for B1
Question: How did the Kd [1] turn out when B6 was run?
Answer: 62.9 nM

Question: And the Response [1]?
Answer: 0.4

Question: And the koff [1]?
Answer: 0.00665 s⁻¹

Question: And the kon [1]?
Answer: 106000 M⁻¹ s⁻¹

Question: What about the Kd [2] of the same binder?
Answer: 23.3 nM

Question: What about the Response [2] of the same binder?
Answer: 0.6

Question: And the koff [2]?
Answer: 0.00191 s⁻¹

Question: And the kon [2]?
Answer: 81700 M⁻¹ s⁻¹

B7: ABL-CD3-14 (antibody, V domains shown)
VH: EVQLVESGGGLVKPGGSLRLSCAASGFTCSSYSMTWVRQAPGKGLEWVSSISRRSSYIYYADSVKGRFTISRDNAKNSLYLQLNSLRAEDTAVYYCARERWELLYFDYWGQGTLVTVSS
VL: NFMLTQPHSVSESPGKTVTISCTRSSGSIASNYVQWYQQRPGSSPTTVIYEDNQRPSGVPDRFSGSIDSSSNSASLTISGLKTEDEADYYCQSYDSSNRVFGGGTKLTVL
notes: as for B1
Question: B7 was tested. Which Kd [4] did it give?
Answer: 9.66 nM

Question: And the Response [4]?
Answer: 0.08

Question: What about the koff [4] of the same binder?
Answer: 0.00287 s⁻¹

Question: And the kon [4]?
Answer: 298000 M⁻¹ s⁻¹

Question: What about the Kd [5] of the same binder?
Answer: 12.8 nM

Question: What about the Response [5] of the same binder?
Answer: 0.17

Question: What about the koff [5] of the same binder?
Answer: 0.00152 s⁻¹

Question: What about the kon [5] of the same binder?
Answer: 119000 M⁻¹ s⁻¹

B8: ABL-CD3-38 (antibody, V domains shown)
VH: QGQLQQWGAGLLKPSETLSLTCAVYGGSFSGYYWSWIRLPPGKGLEWIGEINHSGNTNYNPSLKSRVTISVDTSKNQFSLQLSSVTAADTAVYYCAKEVEIWGYFDYWGQGTLVTVSS
VL: QSVLTQPPSVSGAPGQRVTISCTGSSSNIGAGYDVHWYQQLPGTAPKLLIYGNSNRPSGVPDRFSGSKSGTSASLAITGLQAEDETDYNCQSYDSSLSGYVFGTGTKVTVL
notes: as for B1
Question: What does the source list for B8?
Answer: Kd [6]: 1.36 nM; Response [6]: 0.73; koff [6]: 0.000331 s⁻¹; kon [6]: 243000 M⁻¹ s⁻¹; Kd [5]: 1.41 nM; Response [5]: 0.73; koff [5]: 0.00035 s⁻¹; kon [5]: 248000 M⁻¹ s⁻¹

B9: CD3 × CD33-BspAb36 (bispecific antibody)
scFv-Fc: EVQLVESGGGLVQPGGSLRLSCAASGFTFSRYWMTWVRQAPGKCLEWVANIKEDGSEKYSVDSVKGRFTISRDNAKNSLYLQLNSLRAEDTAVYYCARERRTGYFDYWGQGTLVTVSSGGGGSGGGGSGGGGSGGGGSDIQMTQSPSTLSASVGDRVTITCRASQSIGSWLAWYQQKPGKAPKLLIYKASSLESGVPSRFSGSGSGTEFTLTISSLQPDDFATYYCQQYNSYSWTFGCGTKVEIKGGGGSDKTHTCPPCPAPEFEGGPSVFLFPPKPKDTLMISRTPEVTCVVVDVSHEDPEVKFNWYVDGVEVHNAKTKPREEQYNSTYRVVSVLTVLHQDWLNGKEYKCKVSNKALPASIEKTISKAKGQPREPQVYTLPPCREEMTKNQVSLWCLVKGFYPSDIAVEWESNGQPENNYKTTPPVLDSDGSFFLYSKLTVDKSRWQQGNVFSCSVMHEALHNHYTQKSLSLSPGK
heavy: EVQLVQSGAEVKKPGSSVKVSCKASGYTITDSNIHWVRQAPGQSLEWIGYIYPYNGGTDYNQKFKNRATLTVDNPTNTAYMELSSLRSEDTAFYYCVNGNPWLAYWGQGTLVTVSSASTKGPSVFPLAPSSKSTSGGTAALGCLVKDYFPEPVTVSWNSGALTSGVHTFPAVLQSSGLYSLSSVVTVPSSSLGTQTYICNVNHKPSNTKVDKRVEPKSCDKTHTCPPCPAPEFEGGPSVFLFPPKPKDTLMISRTPEVTCVVVDVSHEDPEVKFNWYVDGVEVHNAKTKPREEQYNSTYRVVSVLTVLHQDWLNGKEYKCKVSNKALPASIEKTISKAKGQPREPQVCTLPPSREEMTKNQVSLSCAVKGFYPSDIAVEWESNGQPENNYKTTPPVLDSDGSFFLVSKLTVDKSRWQQGNVFSCSVMHEALHNRFTQKSLSLSPGK
light: DIQLTQSPSTLSASVGDRVTITCRASESLDNYGIRFLTWFQQKPGKAPKLLMYAASNQGSGVPSRFSGSGSGTEFTLTISSLQPDDFATYYCQQTKEVPWSFGQGTKVEVKRTVAAPSVFIFPPSDEQLKSGTASVVCLLNNFYPREAKVQWKVDNALQSGNSQESVTEQDSKDSTYSLSSTLTLSKADYEKHKVYACEVTHQGLSSPVTKSFNRGEC
Question: What does the source list for B9?
Answer: flow cytometry signal [7]: 12500; flow cytometry signal (CD33 on KILR-HL60 cells [8]): 746000; flow cytometry signal [9]: 26100; flow cytometry signal (CD33 on KILR-HL60 cells [10]): 569000

B10: CD3 × CD33-BspAb38 (bispecific antibody)
scFv-Fc: not shown
heavy: EVQLVQSGAEVKKPGSSVKVSCKASGYTITDSNIHWVRQAPGQSLEWIGYIYPYNGGTDYNQKFKNRATLTVDNPTNTAYMELSSLRSEDTAFYYCVNGNPWLAYWGQGTLVTVSSASTKGPSVFPLAPSSKSTSGGTAALGCLVKDYFPEPVTVSWNSGALTSGVHTFPAVLQSSGLYSLSSVVTVPSSSLGTQTYICNVNHKPSNTKVDKRVEPKSCDKTHTCPPCPAPEFEGGPSVFLFPPKPKDTLMISRTPEVTCVVVDVSHEDPEVKFNWYVDGVEVHNAKTKPREEQYNSTYRVVSVLTVLHQDWLNGKEYKCKVSNKALPASIEKTISKAKGQPREPQVCTLPPSREEMTKNQVSLSCAVKGFYPSDIAVEWESNGQPENNYKTTPPVLDSDGSFFLVSKLTVDKSRWQQGNVFSCSVMHEALHNRFTQKSLSLSPGK
light: DIQLTQSPSTLSASVGDRVTITCRASESLDNYGIRFLTWFQQKPGKAPKLLMYAASNQGSGVPSRFSGSGSGTEFTLTISSLQPDDFATYYCQQTKEVPWSFGQGTKVEVKRTVAAPSVFIFPPSDEQLKSGTASVVCLLNNFYPREAKVQWKVDNALQSGNSQESVTEQDSKDSTYSLSSTLTLSKADYEKHKVYACEVTHQGLSSPVTKSFNRGEC
Question: B10 was tested. Which flow cytometry signal [7] did it give?
Answer: 23700

Question: What about the flow cytometry signal (CD33 on KILR-HL60 cells [8]) of the same binder?
Answer: 476000

Question: What about the flow cytometry signal [9] of the same binder?
Answer: 34100

Question: And the flow cytometry signal (CD33 on KILR-HL60 cells [10])?
Answer: 635000

Source: patent US20260167721A1 (ABLEXIS, published 2026)
